Results taken from patent US7314754B2, “Polynucleotide encoding the hOT7T175 G protein coupled receptor” (Takeda Pharmaceutical Company Limited, priority 1998, dated 2008).
No end group written: not given here.

Biological target: T1, rOT7T175 (Rattus norvegicus, UniProt Q924U1)
T1 construct: expressed in transfected cells
Test: Measurement of intracellular Ca ion concentration-increasing activity using FLIPR
Format: cell-based
Details: rOT7T175-23 cells; final peptide concentration 1×10^−5 M to 1×10^−10 M
Experimental: The stable expression cell line rOT7T175 was obtained by transduction of expression plasmid pAK-rOT175 for animal cell into CHO/dhfr^− cells, using CellPhect Transfection Kit (Amersham Pharmacia Biotech, Inc.). First, […] of Buffer A (attached to CellPhect Transfection Kit) was added to […] of plasmid DNA dissolved in […] of distilled water followed by stirring. After the mixture was settled for 10 minutes, […] of Buffer B (attached to CellPhect Transfection Kit) was added to the mixture, which was vigorously stirred to form liposomes containing the DNA. Then 4×10^5 CHO/dhfr^− cells (obtained from ATCC) were inoculated on a 60 mm Petri dish. After culturing the cells in Ham's F-12 medium (Nissui Seiyaku Co., Ltd.) supplemented with 10% fetal bovine serum (BIO WHITTAKER, Inc.) at 37° C. for 2 days in 5% carbon dioxide gas, […] of the liposomes were dropwise added to the cells in the Petri dish. After culturing the cells at 37° C. for 6 hours in 5% carbon dioxide gas, the cells were washed twice with serum-free Ham's F-12 medium and 3 ml of 15% glycerol was added to the cells in the Petri dish followed by treatment for 2 minutes. […]
The intracellular Ca ion concentration-increasing activity of the synthetic peptides obtained in (1-1) described above in rOT7T175-23 and ETA24was determined, using FLIPR (Molecular Devices, Inc.). […]

T1 sequence (Q924U1 whole entry R383V): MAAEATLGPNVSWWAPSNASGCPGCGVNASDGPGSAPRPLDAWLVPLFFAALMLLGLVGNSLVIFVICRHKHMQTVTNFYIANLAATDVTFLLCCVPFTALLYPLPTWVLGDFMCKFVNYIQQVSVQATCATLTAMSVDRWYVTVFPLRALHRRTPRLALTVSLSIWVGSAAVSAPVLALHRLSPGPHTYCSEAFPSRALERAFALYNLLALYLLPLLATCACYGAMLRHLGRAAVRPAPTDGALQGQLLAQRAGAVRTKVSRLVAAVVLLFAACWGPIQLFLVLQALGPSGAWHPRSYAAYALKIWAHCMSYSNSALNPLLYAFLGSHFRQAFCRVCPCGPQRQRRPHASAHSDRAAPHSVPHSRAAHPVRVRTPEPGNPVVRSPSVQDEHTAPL

intracellular Ca ion concentration-increasing activity, comparison of dose response curves (FIG. 9): highest activity
Substance: PEPTIDE (40-54): C-terminal peptide of PEPTIDE (1-54), residues 40-54, synthesized on p-methyl BHA resin (KDLPNYNWNSFGLRF-NH2)
